Laboratory results taken from PMC5148612, “Mechanism of cargo-directed Atg8 conjugation during selective autophagy” (eLife, 2016).

Columns and labels:
Conditions in all cases: both partners purified
[1] = biological target: T1, Atg12~Atg5-Atg16-mCherry complex (S. cerevisiae, UniProt P38316 1-186; Q12380 1-294; Q03818 1-150, conjugated to Atg5 (Atg12~Atg5 protein conjugate) | conjugated to Atg12); test: microscopy-based protein-protein interaction assay on beads; glutathione beads coated with GST baits at 20 µM, Atg12~Atg5-Atg16-mCherry 5 µM, 25 mM HEPES pH 7.5, 150 mM NaCl, 1 mM DTT, imaged at equilibrium by spinning disc microscopy (Figures 1B, 2F, 2G)
T1 construct: Atg12, S. cerevisiae; Atg5, S. cerevisiae; Atg16, S. cerevisiae; also called Cx; source: E. coli Rosetta pLysS; Atg12~Atg5 conjugate mixed 1:1 with purified Atg16-mCherry, purified by size exclusion chromatography; not shown: His6, N-terminal, cleaved; mCherry, C-terminal, kept; copies: + +
T1 sequence (looked up) 1: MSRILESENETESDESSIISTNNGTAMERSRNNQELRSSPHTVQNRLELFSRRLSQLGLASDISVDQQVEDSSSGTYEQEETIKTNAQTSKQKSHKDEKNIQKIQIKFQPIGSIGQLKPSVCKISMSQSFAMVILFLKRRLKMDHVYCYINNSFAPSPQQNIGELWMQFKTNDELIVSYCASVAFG
T1 sequence (looked up) 2: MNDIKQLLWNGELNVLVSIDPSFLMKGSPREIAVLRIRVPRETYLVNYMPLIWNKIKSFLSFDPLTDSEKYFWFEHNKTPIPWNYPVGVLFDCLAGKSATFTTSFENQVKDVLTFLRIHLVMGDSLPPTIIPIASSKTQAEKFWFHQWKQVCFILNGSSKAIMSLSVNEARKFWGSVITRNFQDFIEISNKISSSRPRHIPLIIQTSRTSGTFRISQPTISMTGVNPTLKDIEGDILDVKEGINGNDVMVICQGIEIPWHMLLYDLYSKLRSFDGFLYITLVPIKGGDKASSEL
T1 sequence (looked up) 3: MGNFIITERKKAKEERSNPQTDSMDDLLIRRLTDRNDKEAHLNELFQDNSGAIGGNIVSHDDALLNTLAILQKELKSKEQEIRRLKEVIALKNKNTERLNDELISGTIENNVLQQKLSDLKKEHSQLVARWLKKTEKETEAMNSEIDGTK

Atg12~Atg5-Atg16 complex = biological target: T2, Atg12~Atg5-Atg16 complex (S. cerevisiae, UniProt P38316 1-186; Q12380 1-294; Q03818 1-150, conjugated to Atg5 (Atg12~Atg5 protein conjugate) | conjugated to Atg12); test: pull-down; GST-fused bait 5 µM and GST-free prey 5 µM with glutathione Sepharose 4B, 1 hr at 4°C; washed with 25 mM HEPES pH 7.5, 150 mM NaCl, 1 mM DTT and 0.1% TritonX100; Western blot (Figures 1A, 1C, 2A, 2C)
T2 construct: Atg12, S. cerevisiae; Atg5, S. cerevisiae; Atg16, S. cerevisiae; conjugate made by co-expression with Atg7 and Atg10 (SMC131); details in Romanov et al., 2012; also called E3-like complex; source: E. coli Rosetta pLysS; Atg12~Atg5 conjugate mixed 1:1 with purified Atg16, purified by size exclusion chromatography; not shown: GST, N-terminal, cleaved; copies: + +
T2 sequence (looked up) 1: T1 sequence (looked up) 1
T2 sequence (looked up) 2: T1 sequence (looked up) 2
T2 sequence (looked up) 3: T1 sequence (looked up) 3

Atg12~Atg5 conjugate = biological target: T3, Atg12~Atg5 conjugate (S. cerevisiae, UniProt P38316 1-186; Q12380 1-294, conjugated to Atg5 (Atg12~Atg5 protein conjugate) | conjugated to Atg12); test: as above
T3 construct: Atg12, S. cerevisiae; Atg5, S. cerevisiae; the two chains are covalently joined; source: E. coli Rosetta pLysS, co-expression of 6xHis-Atg5, Atg12, Atg7 and Atg10, purified
T3 sequence (looked up) 1: T1 sequence (looked up) 1
T3 sequence (looked up) 2: T1 sequence (looked up) 2

Measured: binding result

B1: GST-Atg19 (natural protein, S. cerevisiae, UniProt P35193 1-415, looked up)
chain: MNNSKTNQQMNTSMGYPLTVYDECNKFQLIVPTLDANIMLWCIGQLSLLNDSNGCKHLFWQPNDKSNVRILLNNYDYGHLFKYLQCQRKCSVYIGEGTLKKYNLTISTSFDNFLDLTPSEEKESLCREDAHEDPVSPKAGSEEEISPNSTSNVVVSRECLDNFMKQLLKLEESLNKLELEQKVTNKEPNHRISGTIDIPEDRSELVNFFTELKTVKQLEDVFQRYHDYERLSQECDSKTEIASDHSKKETKIEVEPPNERSLQITMNQRDNSLYFQLFNNTNSVLAGNCKLKFTDAGDKPTTQIIDMGPHEIGIKEYKEYRYFPYALDLEAGSTIEIENQYGEVIFLGKYGSSPMINLRPPSRLSAESLQASQEPFYSFQIDTLPELDDSSIISTSISLSYDGDDNEKALTWEEL
notes: Atg19, S. cerevisiae cargo receptor; also called full length GST-Atg19; Atg19 full length; source: E. coli Rosetta pLysS, purified; not shown: GST, N-terminal, kept
binds: all assays above
